Laboratory results taken from patent US20260209386A1 (MYTHIC THERAPEUTICS, published 2026).
Changes are numbered by the printed parent chain.

T1: Human PTK7/CCK4 Protein, His Tag, Acro Biosystems PT7-H52H3 (human, UniProt Q13308 31-704)
T1 construct: bought protein; also called Human PTK7 Protein, His Tag, Acro Biosystems; not shown: His tag
T1 sequence: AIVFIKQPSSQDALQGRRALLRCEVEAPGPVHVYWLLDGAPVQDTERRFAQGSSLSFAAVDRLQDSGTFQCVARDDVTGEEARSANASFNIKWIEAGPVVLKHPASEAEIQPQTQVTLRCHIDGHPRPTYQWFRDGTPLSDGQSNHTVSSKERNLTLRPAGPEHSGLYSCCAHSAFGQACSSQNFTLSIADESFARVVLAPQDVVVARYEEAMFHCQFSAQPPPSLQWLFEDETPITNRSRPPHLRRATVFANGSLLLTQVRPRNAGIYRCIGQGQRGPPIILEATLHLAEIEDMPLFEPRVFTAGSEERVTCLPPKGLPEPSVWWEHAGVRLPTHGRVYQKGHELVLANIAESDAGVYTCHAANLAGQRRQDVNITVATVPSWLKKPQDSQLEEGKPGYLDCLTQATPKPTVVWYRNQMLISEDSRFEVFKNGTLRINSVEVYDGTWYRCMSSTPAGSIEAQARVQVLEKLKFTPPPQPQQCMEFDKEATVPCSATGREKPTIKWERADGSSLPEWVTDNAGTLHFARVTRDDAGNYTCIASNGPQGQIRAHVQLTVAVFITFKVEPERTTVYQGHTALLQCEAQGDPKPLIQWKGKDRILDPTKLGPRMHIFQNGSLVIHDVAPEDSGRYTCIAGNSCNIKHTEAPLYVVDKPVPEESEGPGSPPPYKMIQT

B1: MYT11180 (antibody, V domains shown)
VH: EVQLVESGGGLVQPGGSLRLSCTASHIDLSSYVMGWVRQAPGKGLEWVGYIYGGGGTYYATWARGRFTISRDTSKNTVYLQMNSLRAEDTAVYFCARAAADFYFNLWGQGTLVTVSS
VL: EIVMTQSPSTLSASVGDRVIITCQASQSISSYLAWYQQKPGKAPKLLIYDISDLASGVPSRFSGSGSGAEFTLTISSLQPDDFATYYCQSYYWISNSGAAFGQGTKLTVL
notes: IgG
B2: MYT11192 (antibody, V domains shown)
VH: B1 VH with H26G, Y52H
VL: B1 VL
notes: IgG
B3: MYT11184 (antibody, V domains shown)
VH: B1 VH with H26G, S30H
VL: B1 VL
notes: IgG
B4: MYT11182 (antibody, V domains shown)
VH: B1 VH with H26G, D28H
VL: B1 VL
notes: IgG
B5: MYT11193 (antibody, V domains shown)
VH: B1 VH with H26G, G53H
VL: B1 VL
notes: IgG
B6: MYT11093 (antibody, V domains shown)
VH: EVQLVESGGGLVQPGGSLRLSCTASGLSLSSYWMSWVRQAPGKGLEWVGVISAGGNTYYANWAKGRFTISRDTSKNTVYLQMNSLRAEDTAVYFCARGDDGYTNAAYVSNLWGQGTLVTVSS
VL: EIVMTQSPSTLSASVGDRVIITCQASQSISSWLSWYQQKPGKAPKLLIYKASTLASGVPSRFSGSGSGAEFTLTISSLQPDDFATYYCQSYHDSTTIAFGQGTKLTVL
notes: IgG
B7: MYT11103 (antibody, V domains shown)
VH: EVQLVESGGGLVQPGGSLRLSCTASGHSLSTYAMSWVRQAPGKGLEWVGMIYINDNTYYASWAKGRFTISRDTSKNTVYLQMNSLRAEDTAVYFCARDIGISYYIGVSLWGQGTLVTVSS
VL: EIVMTQSPSTLSASVGDRVIITCQASQSIGTRLSWYQQKPGKAPKLLIYGASKLATGVPSRFSGSGSGAEFTLTISSLQPDDFATYYCLGEYSYTTTDGIAFGQGTKLTVL
notes: IgG
B8: MYT11136 (antibody, V domains shown)
VH: B7 VH with H27F, Y104H
VL: B7 VL
notes: IgG
B9: MYT11106 (antibody, V domains shown)
VH: B7 VH with H27F, S30H
VL: B7 VL
notes: IgG
B10: MYT11117 (antibody, V domains shown)
VH: B7 VH with H27F, D55H
VL: B7 VL
notes: IgG
B11: MYT11137 (antibody, V domains shown)
VH: B7 VH with H27F, I105H
VL: B7 VL
notes: IgG
B12: MYT11108 (antibody, V domains shown)
VH: B7 VH with H27F, Y32H
VL: B7 VL
notes: IgG
B13: MYT11146 (antibody, V domains shown)
VH: B7 VH with H27F
VL: B7 VL with A25H
notes: IgG
B14: MYT11172 (antibody, V domains shown)
VH: B7 VH with H27F
VL: B7 VL with D98H
notes: IgG
B15: MYT11163 (antibody, V domains shown)
VH: B7 VH with H27F
VL: B7 VL with L89H
notes: IgG
B16: MYT11120 (antibody, V domains shown)
VH: B7 VH with H27F, Y58H
VL: B7 VL
notes: IgG
B17: MYT11151 (antibody, V domains shown)
VH: B7 VH with H27F
VL: B7 VL with G30H
notes: IgG
B18: MYT11105 (antibody, V domains shown)
VH: B7 VH with H27F, L29H
VL: B7 VL
notes: IgG
B19: MYT11153 (antibody, V domains shown)
VH: B7 VH with H27F
VL: B7 VL with R32H
notes: IgG
B20: MYT11150 (antibody, V domains shown)
VH: B7 VH with H27F
VL: B7 VL with I29H
notes: IgG
B21: MYT11107 (antibody, V domains shown)
VH: B7 VH with H27F, T31H
VL: B7 VL
notes: IgG
B22: MYT11152 (antibody, V domains shown)
VH: B7 VH with H27F
VL: B7 VL with T31H
notes: IgG
B23: MYT11166 (antibody, V domains shown)
VH: B7 VH with H27F
VL: B7 VL with Y92H
notes: IgG
B24: MYT11134 (antibody, V domains shown)
VH: B7 VH with H27F, S102H
VL: B7 VL
notes: IgG
B25: MYT11115 (antibody, V domains shown)
VH: B7 VH with H27F, I53H
VL: B7 VL
notes: IgG
B26: MYT10999 (antibody, V domains shown)
VH: EVQLVESGGGLVQPGGSLRLSCTASGFSLSSYAMGWVRQAPGKGLEWVGFINAGGNTYYANWAKGRFTISRDTSKNTVYLQMNSLRAEDTAVYFCARRYSRASGWYDLWGQGTLVTVSS
VL: EIVMTQSPSTLSASVGDRVIITCQASQSISHYLAWYQQKPGKAPKLLIYAASTLASGVPSRFSGSGSGAEFTLTISSLQPDDFATYYCQSYSYSSGIDYGDVFGQGTKLTVL
notes: IgG
B27: MYT11000 (antibody, V domains shown)
VH: B26 VH
VL: B26 VL with H31S, Y32H
notes: IgG
B28: MYT11014 (antibody, V domains shown)
VH: B26 VH
VL: B26 VL with H31S, Y93H
notes: IgG
B29: MYT11023 (antibody, V domains shown)
VH: B26 VH
VL: B26 VL with H31S, V102H
notes: IgG
B30: MYT11006 (antibody, V domains shown)
VH: B26 VH
VL: B26 VL with H31S, T53H
notes: IgG
B31: MYT11001 (antibody, V domains shown)
VH: B26 VH
VL: B26 VL with H31S, L33H
notes: IgG
B32: MYT11010 (antibody, V domains shown)
VH: B26 VH
VL: B26 VL with H31S, Q89H
notes: IgG
B33: MYT11021 (antibody, V domains shown)
VH: B26 VH
VL: B26 VL with H31S, G100H
notes: IgG
B34: MYT11013 (antibody, V domains shown)
VH: B26 VH
VL: B26 VL with H31S, S92H
notes: IgG
B35: MYT11012 (antibody, V domains shown)
VH: B26 VH
VL: B26 VL with H31S, Y91H
notes: IgG
B36: MYT11018 (antibody, V domains shown)
VH: B26 VH
VL: B26 VL with H31S, I97H
notes: IgG
B37: MYT11003 (antibody, V domains shown)
VH: B26 VH
VL: B26 VL with H31S, A50H
notes: IgG
B38: MYT11004 (antibody, V domains shown)
VH: B26 VH
VL: B26 VL with H31S, A51H
notes: IgG

Molecular target: T1, Human PTK7/CCK4 Protein, His Tag, Acro …
Experiment: BLI, antibody on anti-human Fc sensor, 50 nM PTK7

| binding result | Binder |
| --- | --- |
| binds | B1 |
| binds | B2 |
| binds | B3 |
| binds | B4 |
| binds | B5 |
| binds | B6 |
| binds | B7 |
| binds | B8 |
| binds | B9 |
| binds | B10 |
| binds | B11 |
| binds | B12 |
| binds | B13 |
| binds | B14 |
| binds | B15 |
| binds | B16 |
| binds | B17 |
| binds | B18 |
| binds | B19 |

| binding result | Binder |
| --- | --- |
| binds | B20 |
| binds | B21 |
| binds | B22 |
| binds | B23 |
| binds | B24 |
| binds | B25 |
| binds | B26 |
| binds | B27 |
| binds | B28 |
| binds | B29 |
| binds | B30 |
| binds | B31 |
| binds | B32 |
| binds | B33 |
| binds | B34 |
| binds | B35 |
| binds | B36 |
| binds | B37 |
| binds | B38 |
